# US20160264647A1 (US Dept. of Health and Human Services, published 2016)
# T1: MERS-CoV spike glycoprotein (S) (MERS-CoV, UniProt K9N5Q8 18-1353)
# T1 sequence: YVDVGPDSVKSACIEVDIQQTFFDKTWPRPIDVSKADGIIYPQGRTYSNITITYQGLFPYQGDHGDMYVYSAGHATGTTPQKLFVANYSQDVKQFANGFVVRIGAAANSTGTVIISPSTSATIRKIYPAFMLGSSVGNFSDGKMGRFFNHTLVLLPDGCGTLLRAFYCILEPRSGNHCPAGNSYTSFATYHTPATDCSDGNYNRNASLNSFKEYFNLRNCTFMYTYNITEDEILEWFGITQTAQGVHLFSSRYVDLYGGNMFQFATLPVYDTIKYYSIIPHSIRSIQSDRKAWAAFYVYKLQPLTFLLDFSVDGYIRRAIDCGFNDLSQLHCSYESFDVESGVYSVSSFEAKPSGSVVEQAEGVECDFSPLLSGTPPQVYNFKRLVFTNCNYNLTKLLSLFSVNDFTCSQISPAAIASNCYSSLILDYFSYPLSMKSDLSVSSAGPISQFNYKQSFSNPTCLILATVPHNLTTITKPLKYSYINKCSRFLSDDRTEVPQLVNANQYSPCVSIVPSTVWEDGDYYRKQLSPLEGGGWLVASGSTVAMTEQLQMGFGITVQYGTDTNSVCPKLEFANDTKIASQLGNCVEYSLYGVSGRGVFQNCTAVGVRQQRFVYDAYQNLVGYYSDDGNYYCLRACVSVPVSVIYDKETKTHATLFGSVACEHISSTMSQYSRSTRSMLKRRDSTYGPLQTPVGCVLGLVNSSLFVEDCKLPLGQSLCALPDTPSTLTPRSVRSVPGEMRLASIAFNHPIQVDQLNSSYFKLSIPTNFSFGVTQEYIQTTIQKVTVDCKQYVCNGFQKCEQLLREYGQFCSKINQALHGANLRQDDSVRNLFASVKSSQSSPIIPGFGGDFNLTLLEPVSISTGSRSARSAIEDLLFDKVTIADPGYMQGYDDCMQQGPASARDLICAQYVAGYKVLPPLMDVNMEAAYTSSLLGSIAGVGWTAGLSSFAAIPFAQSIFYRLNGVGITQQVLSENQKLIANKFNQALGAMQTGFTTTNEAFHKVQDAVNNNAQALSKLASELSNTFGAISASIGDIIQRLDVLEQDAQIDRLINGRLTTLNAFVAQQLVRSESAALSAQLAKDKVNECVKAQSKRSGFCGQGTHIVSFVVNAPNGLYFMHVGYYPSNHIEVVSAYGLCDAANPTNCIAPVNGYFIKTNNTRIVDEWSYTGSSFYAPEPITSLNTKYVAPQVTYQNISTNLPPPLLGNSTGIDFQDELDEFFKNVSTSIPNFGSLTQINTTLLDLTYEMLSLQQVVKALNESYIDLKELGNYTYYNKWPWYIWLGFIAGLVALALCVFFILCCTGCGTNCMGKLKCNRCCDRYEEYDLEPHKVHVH
# Target: T1, MERS-CoV spike glycoprotein (S)
# Experiment: cell-based or functional assay
row,Binder,MERS-CoV pseudovirus neutralization (inhibition of viral entry) at 0.1 µg/ml [%]
1,"IgG1 m336 (antibody, V domains shown) VH: QVQLVQSGAEVKKPGSSVKVSCKASGGTFSSYAISWVRQAPGQGLEWMGGIIPIFGTASYAQKFQGRVTITADKSTSTAYMELSSLRSEDTAVYYCARVGYCSSTSCNRGAFDIWGQGTMVTVSS VL: DIQLTQSPSSLSASVGDRVTITCRASQGIRNDLGWYQQKPGKAPKLLIYAASSLQSGVPSRFSGSGSGTDFTLTISSLQPEDFATYYCQQLNSYPLTFGGGTKVEIKR",> 95
2,"IgG1 m338 (antibody, V domains shown) VH: QVQLQQSGAEVKKRGSSVKVSCKASGGTFSSYTISWVRQAPGQGLEWMGRIIPILGIANYAQKFQGRVTITADKSTSTAYMELSSLRSEDTAVYYCARDLYDSSGYYRNTDAFDIWGQGTMVTVSS VL: EIVMTQSPVTLSLSPGERATLSCRASQSVSSYLAWYQQKPGQAPRLLIYDASNRATGIPARFSGSGSGTDFTLTISSLEPEDFAVYYCQQYGSSPWTFGQGTKVEIKR",> 95
3,"IgG1 m337 (antibody, V domains shown) VH: QVQLQQSGAEVKKPGSSVKVSCKASGGTFSSYTISWVRQAPGQGLEWMGRIIPIFGTANYAQKFQGRVTITADKSTSTAYMELSSLRSEDTAVYYCARDLGPGGDSSGYYYGPGAFDIWGQGTMVTVSS VL: not shown",> 95
